Tests used:
[1] = tested on: THP-1 cells; assay: Inhibition of TNF-α shedding from THP-1 cells (ELISA); type: cell-based, human; details: 100 ng/ml PMA, 6 h, 50 to 500 nM
Experimental: FIG. 3. Effects of mutations in N-TIMP-3 on inhibition of cellular shedding of TNF-α. THP-1 cells (2.5×10^6/ml) growing in serum-free RPMI-1640 medium were stimulated with 100 ng/ml PMA for 20 min before adding various concentrations of N-TIMP-3 (wild-type and mutants). Cells were allowed to grow for another 6 hr and conditioned media were collected for the ELISA assays.
Inhibition of TNF-α shedding from THP-1 cells—All TIMP solutions were dialyzed against 20 mM Tris-HCl (pH 7.0), 150 mM NaCl and 20% glycerol before use. Human monocyte THP-1 cells cultured in RPMI-1640 medium supplemented with 5% fetal calf serum were harvested, extensively washed and reseeded into serum-free medium at 2.5×10^6 cells/ml. […] The amount of soluble TNF-α released into the medium was measured using sandwich enzyme-linked immunosorbent assay, as described by Engelberts et al. (30) with modifications. The released TNF-α was absorbed to microtiter plates coated with mouse monoclonal anti-human TNF-α antibody BD551220 (1:200 dilution), and the bound TNF-α was detected using biotinylated mouse monoclonal anti-human TNF-α: antibody BD554511 (1:500 dilution) and streptavidin conjugated with horse radish peroxidase, and 3,3′,5,5′-tetramethylbenzidine as peroxidase substrate (KPL, Guildford, UK). The plates were read at 450 nm with an ELX808 plate reader (BIO-TEK Instruments Inc). […]

[2] = biological target: T1, ADAMTS-4 (Homo sapiens, UniProt O75173); assay: Aggrecanase assay with GST-IGD-FLAG substrate, ADAMTS-4; type: biochemical; details: Table 3, pH 7.5, 37° C., read-out: Ki(app) ADAMTS-4
T1 sequence (O75173 213-837): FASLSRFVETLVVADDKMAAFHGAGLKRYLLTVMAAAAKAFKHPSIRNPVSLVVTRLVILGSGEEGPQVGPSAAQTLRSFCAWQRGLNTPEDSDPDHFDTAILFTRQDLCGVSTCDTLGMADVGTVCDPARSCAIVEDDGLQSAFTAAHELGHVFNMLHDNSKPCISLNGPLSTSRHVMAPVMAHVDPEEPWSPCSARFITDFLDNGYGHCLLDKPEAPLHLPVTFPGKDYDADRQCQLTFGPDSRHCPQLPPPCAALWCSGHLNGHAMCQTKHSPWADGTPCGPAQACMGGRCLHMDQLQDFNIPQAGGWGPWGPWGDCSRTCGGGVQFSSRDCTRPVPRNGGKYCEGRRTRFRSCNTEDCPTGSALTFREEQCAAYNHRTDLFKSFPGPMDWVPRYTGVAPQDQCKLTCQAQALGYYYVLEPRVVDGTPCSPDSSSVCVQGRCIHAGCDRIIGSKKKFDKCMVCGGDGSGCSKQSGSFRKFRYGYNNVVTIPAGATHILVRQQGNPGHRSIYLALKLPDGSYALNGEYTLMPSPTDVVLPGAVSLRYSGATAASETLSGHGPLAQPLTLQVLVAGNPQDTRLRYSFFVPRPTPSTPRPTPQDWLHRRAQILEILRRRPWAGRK
Experimental: FIG. 8. Graphs of Ki(app) determination. The GST-IGD-FLAG substrate assay was used to determine the Ki(app) of the N-terminal reactive site mutants against ADAMTS-4 (filled squares) and ADAMTS-5 (open circles).
The substrate containing glutathione S-transferase (GST) fused with the interglobular domain (IGD) of aggrecan (Tyr^331 to Gly^457) attached with a C-terminal FLAG sequence (GST-IGD-FLAG) was prepared by cloning it into pGEX-4T1 at the EcoR1 and Xho1 cloning sites. This substrate was expressed in E. coli strain BL-21 (non-DE3) transfected with the pGEX4T1 GST-IGD-FLAG plasmid by induction with […] isopropyl-beta-D-thiogalactopyranoside (IPTG). […] The concentration of intact substrate (52 kDa) was determined by comparison with Coomassie Brilliant Blue staining of known amounts of bovine serum albumin (GE Healthsciences, Buckinghampshire, UK). […]
Aggrecanase assays were carried out in 50 mM Tris HCl pH 7.5, 150 mM NaCl, 10 mM CaCl2, 0.02% NaN3, 0.05% Brij-35 at 37° C. […] The stained gels were then scanned using a scanning densitometer (Biorad GS-710, Hemel Hempstead, UK) and the band intensity of the product (17 kDa) quantified using the 1D Phoretix quantification software (Nonlinear Dynamics, Newcastle upon Tyne, UK). Background subtraction was done using the rolling ball method, and band intensity expressed as pixel volumes.

B1: -1A: N-TIMP-3 mutant with the addition of an N-terminal alanine extension (-1A) (protein)
chain: ACTCSPSHPQDAFCNSDIVIRAKVVGKKLVKEGPFGTLVYTIKQMKMYRGFTKMPHVQYIHTEASESLCGLKLEVNKYQYLLTGRVYDGKMYTGLCNFVERWDQLTLSQRKGLNYRYHLGCN
Question: With B1 as the molecule, how does the “Inhibition of PMA-stimulated release of TNF-α” value [1] read?
Answer: Its value is “only slightly reduced inhibitory activity”.

Question: What about the Ki [2] of the same molecule?
Answer: The Ki was 25 ± 3 nM.

B2: N-TIMP-3: N-terminal inhibitory domain of TIMP-3 (residues 1 to 121), C-terminally His-tagged, wild-type (protein)
chain: CTCSPSHPQDAFCNSDIVIRAKVVGKKLVKEGPFGTLVYTIKQMKMYRGFTKMPHVQYIHTEASESLCGLKLEVNKYQYLLTGRVYDGKMYTGLCNFVERWDQLTLSQRKGLNYRYHLGCN
Question: With B2 as the molecule, how does the “Inhibition of PMA-stimulated release of TNF-α” value [1] read?
Answer: The value was “effectively inhibited”.

Question: And the Ki [2]?
Answer: The Ki was 2.4 ± 1.6 nM.
